Experimental data taken from patent US20170157251A1, “Bi-Specific Monovalent Diabodies That are Capable of Binding CD19 and CD3, and Uses Thereof” (MacroGenics, Inc., priority 2015, published 2017).

Legend:
[1] = system: human blood leukocytes; assay: Flow cytometry binding to human blood leukocytes (B and T cells); conditions: 0.005 to 80 nM
Method: (§1) Following incubation, binding to leukocytes was detected using a biotinylated anti-E-coil/K-coil (EK) mAb, which recognizes the EK coil heterodimerization region of the DART proteins and streptavidin-PE. […] Similarly, CD20 was used as a B cell marker instead of CD19. Therefore, in this study, the CD4+ and CD8+ gated events represent the T cell population and CD20+ gated events represent the B cell population.

[2] = system: cynomolgus monkey blood leukocytes; assay: Flow cytometry binding to cynomolgus monkey blood leukocytes (B and T cells); conditions: 0.005 to 80 nM
Method: as §1

B1: Control DART 2: control DART capable of binding to fluorescein and CD19 (protein)
chain 1: ENVLTQSPATLSVTPGEKATITCRASQSVSYMHWYQQKPGQAPRLLIYDASNRASGVPSRFSGSGSGTDHTLTISSLEAEDAATYYCFQGSVYPFTFGQGTKLEIKGGGSGGGGEVKLDETGGGLVQPGRPMKLSCVASGFTFSDYWMNWVRQSPEKGLEWVAQIRNKPYNYETYYSDSVKGRFTISRDDSKSSVYLQMNNLRVEDMGIYYCTGSYYGMDYWGQGTSVTVSSASTKGEVAACEKEVAALEKEVAALEKEVAALEKGGGDKTHTCPPCPAPEAAGGPSVFLFPPKPKDTLMISRTPEVTCVVVDVSHEDPEVKFNWYVDGVEVHNAKTKPREEQYNSTYRVVSVLTVLHQDWLNGKEYKCKVSNKALPAPIEKTISKAKGQPREPQVYTLPPSREEMTKNQVSLWCLVKGFYPSDIAVEWESNGQPENNYKTTPPVLDSDGSFFLYSKLTVDKSRWQQGNVFSCSVMHEALHNHYTQKSLSLSPGK
chain 2: QAVVTQEPSLTVSPGGTVTLTCRSSTGAVTTSNYANWVQQKPGQAPRGLIGGTNKRAPWTPARFSGSLLGGKAALTITGAQAEDEADYYCALWYSNLWVFGGGTKLTVLGGGGSGGGGEVKLDETGGGLVQPGRPMKLSCVASGFTFSDYWMNWVRQSPEKGLEWVAQIRNKPYNYETYYSDSVKGRFTISRDDSKSSVYLQMNNLRVEDMGIYYCTGSYYGMDYWGQGTSVTVSSASTKGKVAACKEKVAALKEKVAALKEKVAALKE
modifications: Amino Acid Sequence of the First Polypeptide Chain of Control DART 2; Amino Acid Sequence of the Second Polypeptide Chain of Control DART 2
Question: Which results are given for B1?
Answer: binding to B cells (CD20+) and T cells (CD4+ and CD8+) [1]: only mono-specific binding to B cells; binding to B cells (CD20+) and T cells (CD4+ and CD8+) [2]: only mono-specific binding to B cells
